The record followed here is US20100285027A1 (CENTRE NATIONAL DE LA RECHERCHE SCIENTIFIQUE, published 2010).

As a reminder, the Kd is the constant that tells how readily two partners part at equilibrium. Read a low Kd as a tighter complex.

For one test, the target named is T1, synthetic mouse hepcidin (mouse, UniProt Q9EQ21 59-83).
T1 construct: mature; also called murine hepcidin-25
T1 peptide (looked up): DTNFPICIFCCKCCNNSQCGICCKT
In words: dot blot on nitrocellulose, antibody 1:200, HRP secondary antibody, ECL. On the procedure:
Samples of synthetic human hepcidin (100 to 500 ng) or synthetic mouse) hepcidin (500 ng) (Peptide International, Louisville, Ky., USA), or of […] sera from a patient with an inflammatory disease, or from a healthy volunteer, were used. In one experiment, one sample of synthetic human hepcidin (500 ng) was treated with Laemmli buffer. The samples were directly spotted onto the nitrocellulose membrane and allowed to dry overnight. Non-specific sites were blocked by soaking the membrane in 5% skim milk in TBS-T (1 hr, at room temperature).
The primary antibodies (AN-LP1 antibody, or irrelevant antibody HPC4 directed against the epitope […] (SEQ ID NO: 11) of human protein C) were added at a dilution of 1:200 from a solution at 6 mg/ml. Incubation was performed for 2 h at room temperature or overnight at +4° C.
After 3 washes with TBS-T, the membranes were incubated with the secondary antibody conjugated with horseradish peroxidase (1:5000) for 1 h at room temperature.

The target in test [1] is T2, synthetic human hepcidin-25 (human).
T2 construct: Synthetic peptide (Peptide International for the blots); Serum hepcidin and liver hepcidin detected by AN-LP1 are written under this molecule
T2 peptide: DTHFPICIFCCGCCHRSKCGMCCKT
In words: SPR (BIAcore 2000), AN-LP1 immobilized on a CM5 chip, hepcidin 0.39 nM to 12.5 nM as analyte. The method, then:
To estimate AN-LP1 affinity constant and the antibody-antigen interactions, surface plasmon resonance (SPR) measurements were performed with a BIAcore 2000 instrument using carboxymethylated dextran CM5 chips (BIAcore, Piscataway, N.J.). AN-LP1 mAb, dilued at 2 μg/ml in 5 mM maleate buffer (pH 5.75), was immobilized on the CM5 chips by amine coupling.
Hepcidin was diluted in running buffer HBS-EP (0.01M HEPES pH 7.4; 0.15M NaCl, 3 mM EDTA and 0.005% polysorbate 20). Analyte was injected in 3 min, 60 μL/min injections and dissociation was monitored during 10 min. Surface Ab were generated by a 30-s to 1-min injection of glycine-HCL 10 mM pH 2. Kinetic rate constants were determined with purified antibodies. Concentrated hepcidin (0.39 nM to 12.5 nM) were injected over the chip surface at a rate of 60 μL/min to collect binding data. Data analyses were carried out with the BIAevaluation 3.0 software.
On the technique in general: SPR reads the build-up and loss of mass on a sensor chip optically.

In test [2] the target is T3, irrelevant peptide PELAPVSSNLKYTLDC
T3 construct: Negative control in the ELISA; also called control peptide
T3 peptide: PELAPVSSNLKYTLDC
In words: ELISA on coated irrelevant peptide, anti-mouse peroxidase, ABTS, read at 405 nm. On the procedure: The hepcidin binding properties of AN-LP1 produced by hybridoma CNCM I-3794 were tested by ELISA. Synthetic human hepcidin-25 was coated on 96-well boxes, with a concentration of 1-10 microgram/ml in 100 mM carbonate buffer, pH 9.5. One part of the wells is coated with an irrelevant peptide ([…], SEQ ID NO: 10) to be able to determine the specific component of measured signal. After one night of contact, the wells are washed 3 times with a solution of PBS/0.05% tween 20, then saturated with a solution of 0.1M Tris 20%, sucrose pH 7.8. The mouse serums are added in duplicates, with 10-fold serial dilutions. After a 6 h incubation, the wells were washed three times with a solution of PBS 0.05%, tween 20 and an anti-mouse antibody coupled with peroxidase (Biosource) diluted to 1/5,000 in PBS, 0.1% BSA, 0.01% Tween 20 was added for an additional 1 h30-2 h.

B1: monoclonal antibody AN-LP1 produced by the hybridoma CNCM I-3794 (antibody, V domains shown)
VH: EVQLEESGGGLVQPGGSLKLSCAASGFTFSRYSMSWVRQTPEKRLEWVAYISDGGGSTYSPDTVKGRFSISRDNAQNTLYLQMSSLKSEDTAIFYCVRHARLEGYFDVWGAGTSVTVSS
VL: DVLTQSPASVAVSLGQRATISCRASESVDNYGNSFMNWYQQKPGQPPKLLIYRASNLESGIPARFSGSGSRTDFTLTINPVEADDVATYYCQQSNEDPTFGGGTKLEIKR
notes: also called AN-LP1 mAb; mAb AN-LP1
Turning to B1, the binding result with synthetic mouse hepcidin is “no binding (tested: 500 ng)”; in test [2] it was “no binding”. Moreover, binding in test [1] was characterised by a dissociation constant (Kd) of 0.099 nM.
